Experimental data: patent publication US20220002344A1 (CENTRE NATIONAL DE LA RECHERCHE SCIENTIFIQUE, published 2022)
Square brackets hold non-standard residues; d marks the D form. Ends that are not written are not given here. * marks the point of attachment. FITC = O=C1OC2(c3ccc(O)cc3Oc3cc(O)ccc32)c2ccc(NC(=S)*)cc21; Cha = N[C@@H](CC1CCCCC1)C(=O)O

B1: P120 (Onc112-P7Scr), VDKPPYLPRPRPPRrIYNrNGPRChaFQLD-OH (peptide)
peptide: VDKPPYLPRPRPPR[dR]IYN[dR]NGPR[Cha]FQLD-OH
notes: Control fusion peptide with scrambled P7; also called Onc112-Scr
B2: Py (Pyrrhocoricin), VDKGSYLPRPTPPRPIYNRN-NH2 (peptide)
peptide: VDKGSYLPRPTPPRPIYNRN-NH2
notes: Bought from Novopro; also called unglycosylated pyrrhocoricin
B3: P116 (Py-P7), …haDLF-OH (peptide)
peptide: VDKGSYLPRPTPPRPIYNRNGPRQ[Cha]DLF-OH
modifications: N-terminus assumed
SMILES: CC[C@H](C)[C@H](NC(=O)[C@@H]1CCCN1C(=O)[C@H](CCCNC(=N)N)NC(=O)[C@@H]1CCCN1C(=O)[C@@H]1CCCN1C(=O)[C@@H](NC(=O)[C@@H]1CCCN1C(=O)[C@H](CCCNC(=N)N)NC(=O)[C@@H]1CCCN1C(=O)[C@H](CC(C)C)NC(=O)[C@H](Cc1ccc(O)cc1)NC(=O)[C@H](CO)NC(=O)CNC(=O)[C@H](CCCCN)NC(=O)[C@H](CC(=O)O)NC(=O)[C@@H](N)C(C)C)[C@@H](C)O)C(=O)N[C@@H](Cc1ccc(O)cc1)C(=O)N[C@@H](CC(N)=O)C(=O)N[C@@H](CCCNC(=N)N)C(=O)N[C@@H](CC(N)=O)C(=O)NCC(=O)N1CCC[C@H]1C(=O)N[C@@H](CCCNC(=N)N)C(=O)N[C@@H](CCC(N)=O)C(=O)N[C@@H](CC1CCCCC1)C(=O)N[C@@H](CC(=O)O)C(=O)N[C@@H](CC(C)C)C(=O)N[C@@H](Cc1ccccc1)C(=O)O
notes: Fusion of pyrrhocoricin, GPR linker and P7
B4: CM1-76 (P7-Onc112), AcQChaDLF-GPR-Onc112-NH2 (peptide)
peptide: Ac-Q[Cha]DLFGPRVDKPPYLPRPRPPR[dR]IYN[dR]-NH2
SMILES: CC[C@H](C)[C@H](NC(=O)[C@@H](CCCNC(=N)N)NC(=O)[C@H](CCCNC(=N)N)NC(=O)[C@@H]1CCCN1C(=O)[C@@H]1CCCN1C(=O)[C@H](CCCNC(=N)N)NC(=O)[C@@H]1CCCN1C(=O)[C@H](CCCNC(=N)N)NC(=O)[C@@H]1CCCN1C(=O)[C@H](CC(C)C)NC(=O)[C@H](Cc1ccc(O)cc1)NC(=O)[C@@H]1CCCN1C(=O)[C@@H]1CCCN1C(=O)[C@H](CCCCN)NC(=O)[C@H](CC(=O)O)NC(=O)[C@@H](NC(=O)[C@H](CCCNC(=N)N)NC(=O)[C@@H]1CCCN1C(=O)CNC(=O)[C@H](Cc1ccccc1)NC(=O)[C@H](CC(C)C)NC(=O)[C@H](CC(=O)O)NC(=O)[C@H](CC1CCCCC1)NC(=O)[C@H](CCC(N)=O)NC(C)=O)C(C)C)C(=O)N[C@@H](Cc1ccc(O)cc1)C(=O)N[C@@H](CC(N)=O)C(=O)N[C@H](CCCNC(=N)N)C(N)=O
B5: P7 (Ac-QChaDLF-OH) (peptide)
peptide: Ac-Q[Cha]DLF-OH
SMILES: CC(=O)N[C@@H](CCC(N)=O)C(=O)N[C@@H](CC1CCCCC1)C(=O)N[C@@H](CC(=O)O)C(=O)N[C@@H](CC(C)C)C(=O)N[C@@H](Cc1ccccc1)C(=O)O
notes: also called CA2 68; AcQXDLF
B6: P30 (Onc112-P7), VDKPPYLPRPRPPRrIYNrNGPRQChaDLF-OH (peptide)
peptide: VDKPPYLPRPRPPR[dR]IYN[dR]NGPRQ[Cha]DLF-OH
notes: Fusion of Onc112 and P7; the printed Mw 3472.08 agrees with that N; also called CA3-30; Onc-P7

Key:
[1] = target: T1, E. coli sliding clamp (DnaN protein, β subunit of DNA polymerase III) (E. coli, UniProt P0A988 1-366); assay: ITC, 30 °C, peptide titrated into E. coli SC
T1 construct: Recombinant DnaN for ITC (a tag from pET15b is implied by the Ni-NTA step but not described); also called ^EcSC; SC

[2] = target: T2, E. coli 70S ribosome particle (E. coli); assay: ITC, 30 °C, peptide titrated into E. coli 70S ribosome; values not well defined (footnote *)
T2 construct: also called ^Ec70S

[3] = target: T2, E. coli 70S ribosome particle; assay: ITC, 30 °C, peptide titrated into E. coli 70S ribosome
[4] = target: T1, E. coli sliding clamp (DnaN protein, β …); assay: ITC, 30 °C
[5] = target: T2, E. coli 70S ribosome particle; assay: ITC, 30 °C, against the same peptide on E. coli SC
[6] = target: T1, E. coli sliding clamp (DnaN protein, β …); assay: ITC, 25 °C, E. coli SC (beta ring)
[7] = target: T2, E. coli 70S ribosome particle; assay: ITC, E. coli ribosome (70S)
[8] = target: T2, E. coli 70S ribosome particle; assay: ITC, 30 °C, against Py on the 70S ribosome
[9] = target: T2, E. coli 70S ribosome particle; assay: ITC, 30 °C as the table's head says, E. coli ribosome
[10] = target: T1, E. coli sliding clamp (DnaN protein, β …); assay: ITC, 30 °C, E. coli SC
[11] = target: T3, Human PCNA (Proliferating Cell Nuclear Antigen) (Human, UniProt P12004 1-261); assay: ITC, 30 °C
T3 construct: Source and limits of the construct are not described
T3 sequence (P12004 whole entry): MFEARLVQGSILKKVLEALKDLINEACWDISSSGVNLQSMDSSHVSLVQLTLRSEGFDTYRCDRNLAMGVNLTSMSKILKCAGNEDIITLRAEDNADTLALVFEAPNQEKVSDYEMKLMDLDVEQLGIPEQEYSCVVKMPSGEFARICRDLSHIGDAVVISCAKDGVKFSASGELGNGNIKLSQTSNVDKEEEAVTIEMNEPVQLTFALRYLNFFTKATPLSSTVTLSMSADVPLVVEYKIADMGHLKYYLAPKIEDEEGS

T1 sequence (P0A988 whole entry): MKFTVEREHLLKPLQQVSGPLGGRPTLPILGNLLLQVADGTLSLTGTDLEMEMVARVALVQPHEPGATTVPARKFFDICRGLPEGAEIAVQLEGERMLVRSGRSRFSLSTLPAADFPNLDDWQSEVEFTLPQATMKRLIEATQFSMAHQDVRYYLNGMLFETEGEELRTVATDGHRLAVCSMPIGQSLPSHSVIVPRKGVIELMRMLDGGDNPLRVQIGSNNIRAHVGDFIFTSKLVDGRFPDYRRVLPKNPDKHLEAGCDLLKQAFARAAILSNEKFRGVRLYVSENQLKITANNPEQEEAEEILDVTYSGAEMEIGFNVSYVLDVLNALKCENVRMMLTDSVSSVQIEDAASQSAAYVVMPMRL

Row | Binder | -TΔS [1] | Kd [1] | ΔG [1] | ΔH [1] | -TΔS [2] | ΔG [2] | ΔH [2] | -TΔS [3] | Kd [3] | ΔG [3] | ΔH [3] | binding result [4] | Kd [6] | n [6] | ΔG [6] | ΔH [6] | also measured
1 | {FITC}-KVDKGSYLPRPTPPRPIYNRNGPRQ[Cha]DLF-OH (also called FITC-K-Py-P7; CA2-150) [P150 (FITC-Py-P7), FITC-…haDLF-OH] | 8.21 kcal/mol | 390 nM | -8.99 kcal/mol | -17.2 kcal/mol | 6.7 kcal/mol | -6.27 kcal/mol | -13 kcal/mol |  |  |  |  |  |  |  |  |  | 
2 | B1 |  |  |  |  |  |  |  | 3.12 kcal/mol | 101 nM | -9.85 kcal/mol | -13 kcal/mol | no binding |  |  |  |  | 
3 | {FITC}-KVDKGSYLPRPTPPRPIYNRN-NH2 (ends and bridges not checked, also called FITC-K-Py; FITC-K-Pyr) [P122 (FITC-Py), FITC-KVDKGSYLPRPTPPRPIYNRN-NH2] |  |  |  |  | 13.3 kcal/mol | -6.91 kcal/mol | -20.1 kcal/mol |  |  |  |  | no binding |  |  |  |  | 
4 | B2 |  |  |  |  |  |  |  | 8.23 kcal/mol | 15.5 nM | -10.9 kcal/mol | -19.2 kcal/mol | no binding |  |  |  |  | 
5 | {FITC}-KVDKGSYLPRPTPPRPIYNRNGPR[Cha]FQLD-OH (also called FITC-K-Py-P7Scr; CA4-72) [P72 (FITC-Py-P7Scr), FITC-…haFQLD-OH] |  |  |  |  | 2.94 kcal/mol | -5.98 kcal/mol | -8.92 kcal/mol |  |  |  |  | no binding |  |  |  |  | 
6 | B3 | 4.3 kcal/mol | 119 nM | -9.61 kcal/mol | -13.9 kcal/mol |  |  |  | 12 kcal/mol | 37 nM | -10.3 kcal/mol | -22.3 kcal/mol |  |  |  |  |  | fold higher affinity for the ribosome than for SC [5]: 3 fold
7 | B4 |  |  |  |  |  |  |  |  |  |  |  |  | 258 nM | 1 | -9 kcal/mol | -10.7 kcal/mol | 
8 | VDKPPYLPRPRPPR[dR]IYN[dR]-NH2 (also called CA3 28; CA3-28) [P28 (Onc112), VDKPPYLPRPRPPRrIYNr-NH2] |  |  |  |  |  |  |  | 14 kcal/mol | 84 nM | -9.82 kcal/mol | -23.9 kcal/mol | no binding |  |  |  |  | Kd [7]: 241 nM; n [7]: 1; ΔG [7]: -9.2 kcal/mol; ΔH [7]: -16.2 kcal/mol; fold lower affinity than Py [8]: 5 fold; Kd [9]: 241 nM; ΔG [9]: -9.2 kcal/mol; ΔH [9]: -16.2 kcal/mol
9 | B5 | 4.71 kcal/mol | 332 nM | -9 kcal/mol | -13.7 kcal/mol |  |  |  |  |  |  |  |  | 170 nM | 0.9 | -9.2 kcal/mol | -15.4 kcal/mol | Kd [10]: 408 nM; n [10]: 1; ΔH [10]: -12.1 kcal/mol; binding result [11]: no binding
10 | B6 | 4.2 kcal/mol | 205 nM | -9.28 kcal/mol | -13.5 kcal/mol |  |  |  | 15.7 kcal/mol | 70.4 nM | -9.92 kcal/mol | -25.6 kcal/mol |  | 180 nM | 0.9 | -9.2 kcal/mol | -14.6 kcal/mol | fold higher affinity for the ribosome than for SC [5]: 3 fold
